Source: patent publication US20160223562A1, “Method for Determining the Concentration of a Peptide” (JPT Peptide Technologies GmbH, priority 2010, published 2016)
Square brackets hold non-standard residues; d marks the D form. Tyr(3-NO2) = N[C@@H](Cc1ccc(O)c([N+](=O)[O-])c1)C(=O)O

Legend:
Trypsin [1] = target: T1, Trypsin (Sus scrofa, UniProt P00761); assay: Trypsin cleavage of N-terminal quantification tag Ac-nitroTyr-SGK- from peptides, LC-MS with UV detection at 350 nm; type: biochemical; conditions: trypsin protocol of example 9, 24 h, RT
T1 construct: purchased Promega Corporation V511

Trypsin [2] = target: T1, Trypsin; assay: Trypsin cleavage of C-terminal quantification tag -SA-nitroTyr-G from peptides, LC-MS with UV detection at 350 nm; type: biochemical; conditions: after reduction and alkylation, trypsin enzyme/substrate 1:50 over night at RT
Protocol: 23 peptides carrying the C-terminal quantification-tag-SA-nitroTyr-G-OH (SEQ ID NO:2) were synthesized by Fmoc-based solid phase peptide synthesis and purified by HPLC. Each peptide was subjected to the following trypsin cleavage protocol:
Trypsin Activation: Trypsin (20 μg, sequencing grade modified trypsin, Promega Corporation, Madison, Wis., USA, catalogue no. V511, specific activity 16.965 u/mg) was dissolved in Trypsin resuspension buffer (200 μL, Promega, catalogue no. V542A, ingredient 50 mM acetic acid) and incubated for 15 min at 37° C.
Reduction and alkylation: The peptide (approx. 0.05 mg) was dissolved in 1 M urea and 100 mM fresh ammonium hydrogen carbonate (300 μL). TCEP (Tris(2-carboxyethyl) phosphine hydrochloride, 0.2 M, 7.5 μL, final concentration 5 mM) was added and the solution incubated at 37° C. for 1 h. After addition of iodoacetamide (0.5 M, 6.0 μL, final concentration 10 mM) the solution was incubated at RT in the dark for another 30 min. Digestion: The sample was digested with activated Trypsin solution (10 μL per well, 1.0 μg, resulting enzyme/substrate ratio 1:50) over night at RT. To stop the digestion, HCl (2 M, 8 μL final concentration 50 mM) and TFA (3.2 μL, final concentration 1%, pH<2) were added. Finally, the sample was analyzed by LC-MS at 350 nm.

T1 sequence (P00761 9-231): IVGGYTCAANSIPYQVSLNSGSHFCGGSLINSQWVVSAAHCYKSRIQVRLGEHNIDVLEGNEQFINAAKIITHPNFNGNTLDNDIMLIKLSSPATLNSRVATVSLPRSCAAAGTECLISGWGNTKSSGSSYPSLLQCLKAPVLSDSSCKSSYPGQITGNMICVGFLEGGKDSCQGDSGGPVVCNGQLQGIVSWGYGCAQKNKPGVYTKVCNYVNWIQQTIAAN

Substance: Ac-nitroTyr-SGKHTHYFIDLN-K-OH (Ac-[Tyr(3-NO2)]SGKHTHYFIDLNK-OH; SMILES CC[C@H](C)[C@H](NC(=O)[C@H](Cc1ccccc1)NC(=O)[C@H](Cc1ccc(O)cc1)NC(=O)[C@H](Cc1c[nH]cn1)NC(=O)[C@@H](NC(=O)[C@H](Cc1c[nH]cn1)NC(=O)[C@H](CCCCN)NC(=O)CNC(=O)[C@H](CO)NC(=O)[C@H](Cc1ccc(O)c([N+](=O)[O-])c1)NC(C)=O)[C@@H](C)O)C(=O)N[C@@H](CC(=O)O)C(=O)N[C@@H](CC(C)C)C(=O)N[C@@H](CC(N)=O)C(=O)N[C@@H](CCCCN)C(=O)O) [Peptide 7]
- Kusebauch 24 h, RT: Percent Cleavage of Tag [by UV350 - Peptide-Tag vs. Tag] (Trypsin [1]): 100.0%
- Percent Cleavage of Tag [by UV at 350 nm] (Trypsin [2]): 100%
